The source of these data is patent publication US5304631A, “Synthetic helizyme enzymes” (University of Colorado Foundation, Inc., priority 1990, dated 1994).

Holding throughout (type): biochemical
Data set [1] is described as follows: Hydrolysis of ZTONP (esterase activity), followed spectrophotometrically. The settings on record: initial turnover number. How it is done:
Kinetic studies of purified Chymohelizyme 1 were performed using ATEE, BTEE or ZTONP as the substrate.
The progress of the reaction was followed spectrophotometrically. Progress of the hydrolysis of ATEE was followed by titration.

Data set [2] can be described thus: Hydrolysis of ATEE (esterase activity), followed by titration. The settings on record: pH 8.1, 0.05 molar sodium chloride solution. How it is done: Hydrolysis of ATEE at pH 8.1 in 0.05 molar sodium chloride solution followed classical Michaelis-Menten kinetics; kM=1.0 mM and kcat=0.042/sec(corresponding values for chymotrypsin are 0.7 mM; 3.0/sec), showing an activity approximately 1% that of chymotrypsin for this substrate.
Hydrolysis of BTEE and ZTONP were performed as described (Meth. Enzymol. volume XIX, Academic Press, New York, 1970, pp. 38-41). The progress of the reaction was followed spectrophotometrically. Progress of the hydrolysis of ATEE was followed by titration.

Data set [3] relates to monomeric Chymohelizyme 1. As to the kind of experiment: Inhibition of substrate hydrolysis by Chymohelizyme 1 by specific chymotrypsin inhibitors. The text has this: Inclusion of indole at a concentration equal to that of the substrate ZTONP caused approximately 70% inhibition of substrate hydrolysis.

One may read the Km as the concentration of substrate that gives half-maximal velocity. For orientation: kcat means the number of substrate molecules converted per active site and unit of time at saturation.

Turning to chymotrypsin, the turnover number in data set [1] was 300 s⁻¹. Moreover, in data set [2], the Km was 700 µM and the kcat came to 3.0 s⁻¹.
`Cc1ccc(O)cc1` [p-cresol]: in data set [3], the “inhibition of hydrolysis of substrates by monomeric Chymohelizyme 1” value is listed as “inhibited”.
On to `c1ccc2[nH]ccc2c1` [indole], for which the “inhibition of hydrolysis of substrates by monomeric Chymohelizyme 1” value in data set [3] is “inhibited”. Also, the “inhibition of substrate hydrolysis” value in data set [3] (inhibitor at a concentration equal to that of the substrate ZTONP) is reported as “approximately 70%”.
